The values below come from US20050107296A1 (INSTITUT DES VAISSEAUX ET DU SANG, published 2005).

This assay addresses T1, soluble HGF-R, chimeric fusion protein (HGF-R/IgG) comprising the HGF-binding portion of the extracellular … (UniProt P08581 25-932, limits assumed).
T1 construct: also called c-Met; not shown: a portion of IgG
Put plainly: SPR (BIAcore 2000), N immobilized on the sensor chip, soluble HGF-R/IgG injected at three different doses. A general note: Surface plasmon resonance follows binding to a sensor surface in real time, without labels.

T1 sequence (P08581 25-932 limits assumed, change not shown): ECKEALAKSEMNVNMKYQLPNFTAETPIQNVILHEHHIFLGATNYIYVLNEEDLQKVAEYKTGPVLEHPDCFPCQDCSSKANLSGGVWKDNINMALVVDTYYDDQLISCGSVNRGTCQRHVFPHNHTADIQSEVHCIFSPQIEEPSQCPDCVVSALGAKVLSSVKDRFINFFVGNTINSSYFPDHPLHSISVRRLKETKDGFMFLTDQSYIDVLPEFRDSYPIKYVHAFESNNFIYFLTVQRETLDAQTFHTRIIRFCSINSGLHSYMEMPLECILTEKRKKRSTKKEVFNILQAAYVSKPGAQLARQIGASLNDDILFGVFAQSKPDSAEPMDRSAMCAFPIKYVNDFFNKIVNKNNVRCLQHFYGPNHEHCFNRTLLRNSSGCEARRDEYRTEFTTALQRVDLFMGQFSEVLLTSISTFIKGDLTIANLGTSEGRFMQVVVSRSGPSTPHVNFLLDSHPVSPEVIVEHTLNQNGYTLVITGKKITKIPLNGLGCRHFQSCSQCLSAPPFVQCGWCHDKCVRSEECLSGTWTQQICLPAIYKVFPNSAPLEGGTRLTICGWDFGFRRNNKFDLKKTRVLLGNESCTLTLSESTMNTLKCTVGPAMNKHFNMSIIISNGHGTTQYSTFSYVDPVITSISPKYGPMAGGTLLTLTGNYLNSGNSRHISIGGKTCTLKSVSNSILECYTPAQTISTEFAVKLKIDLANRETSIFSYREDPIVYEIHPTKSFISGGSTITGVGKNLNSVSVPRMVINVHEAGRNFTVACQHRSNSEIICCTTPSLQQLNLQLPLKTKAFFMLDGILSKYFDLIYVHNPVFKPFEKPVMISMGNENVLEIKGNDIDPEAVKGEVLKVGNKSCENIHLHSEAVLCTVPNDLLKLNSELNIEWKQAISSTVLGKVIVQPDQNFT

B1: peptide N derived from the HGF α-chain (hairpin-loop domain of HGF, N-terminal Gln instead of PyrGlu) (peptide)
chain: QRKRRNTIHEFKKSAKTTLIKIDPALKIKTKKVNTADQCANRCTRNKGLPFTCKAFVFDKARKQCLWFPFNSMSSGVKKEFGHEFDLYENKDYIRN
notes: Expressed in E. coli and purified; In Assay 6 it was immobilized on the BIAcore sensor chip; also called Ex 1
Regarding B1, the binding result is given as “no binding”.
